From IntAct's records for PubMed 26824392 come the findings set out here.

The assay addresses rab8a_human RAB8A (UniProt P61006).

Sequence of rab8a_human RAB8A (P61006 whole entry): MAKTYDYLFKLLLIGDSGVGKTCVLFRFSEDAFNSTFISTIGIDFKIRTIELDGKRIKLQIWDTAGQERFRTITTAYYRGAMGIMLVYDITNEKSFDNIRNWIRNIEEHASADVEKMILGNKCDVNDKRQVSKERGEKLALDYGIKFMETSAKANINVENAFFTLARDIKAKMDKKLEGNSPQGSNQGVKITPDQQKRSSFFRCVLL

Consider “Leucine-rich repeat serine/threonine-protein kinase 2 (Homo sapiens), Q5S007 R1441C”, for which the “effect of a mutation on the interaction” value was “with no effect”.
